B1: C8orf76 (parent)
chain: YCAKLCEPQWFYEETESSDDVEVL
B2: PBXIP1 (parent)
chain: FGEDGIFRHDRLRFRDFVDALEDS

Variants of: B1
Assay: protein stability index of a GFP-peptide fusion (GPS, HEK-293T) (PSI 1-6); higher = more stable
Conditions: c terminus: a fixed tail appended
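Further: lentivirally expressed fusions sorted by FACS into six bins by GFP to DsRed ratio, PSI derived from sequencing read proportions per bin multiplied by bin number.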

| Variant | protein stability index |
| --- | --- |
| YPAKLCEPQWFYEETESSDDVEVL | 4.2 |
| YCAKLCEPQWMYEETESSDDVEVL | 3.28 |
| YCAKLCEPYWFYEETESSDDVEVL | 2.66 |
| YCAKLCEPQWFYPETESSDDVEVL | 1.92 |
| YCAKLCEPQWFVEETESSDDVEVL | 2.16 |
| YCAKLCEPQWFYEEGESSDDVEVL | 2.27 |
| YCAKLCEPQWFYEETETSDDVEVL | 2.42 |
| YCAKLCEPFWFYEETESSDDVEVL | 2.19 |
| YCAKLCEPQWFYEETESSDDCEVL | 2.41 |
| YEAKLCEPQWFYEETESSDDVEVL | 4.91 |
| YCAKLCEPQWFYEETESSKDVEVL | 2.3 |
| GCAKLCEPQWFYEETESSDDVEVL | 4.56 |
| YCAKWCEPQWFYEETESSDDVEVL | 1.28 |
| YCAKLCEPQWFYKETESSDDVEVL | 1.42 |
| YCAKNCEPQWFYEETESSDDVEVL | 3.31 |
| YCAKLCEPQWFYEETESSCDVEVL | 1.4 |
| YCAKLCESQWFYEETESSDDVEVL | 2.62 |
| YCAKLCEPQWFYEETESCDDVEVL | 2.13 |
| YCAKLCEPTWFYEETESSDDVEVL | 2.29 |
| YCAKLCEPQWFYEETESYDDVEVL | 2.29 |
| YCAKLCEPQWFYEETESSDDVEPL | 2.87 |
| YCAKLCEPQWFYEETESSDKVEVL | 2.01 |
| YCAKLCEPQWFYEETESSDDDEVL | 2.53 |
| YCAKLCEPQWFYEETSSSDDVEVL | 1.74 |
| YCAKLCEPQWFYEETESSDDPEVL | 2.38 |
| YCAWLCEPQWFYEETESSDDVEVL | 2.08 |
| YCAKLCEPQWFYEETESKDDVEVL | 2.28 |
| YCAKLCEPQRFYEETESSDDVEVL | 4.74 |

| Variant | protein stability index |
| --- | --- |
| YCAKLCEPQWFYEETTSSDDVEVL | 2.22 |
| YCRKLCEPQWFYEETESSDDVEVL | 1.75 |
| YCAKLCEPQWFYHETESSDDVEVL | 1.91 |
| YCAKLCEPQWFYAETESSDDVEVL | 2.11 |
| DCAKLCEPQWFYEETESSDDVEVL | 5.04 |
| YCAKLCENQWFYEETESSDDVEVL | 2.69 |
| YCAKLFEPQWFYEETESSDDVEVL | 2.41 |
| YCAKLCEPQWFYEETESSDDVETL | 2.17 |
| YCAKLCEPQWFYEETESEDDVEVL | 2.54 |
| YCAKLCEPQWFYEETESSDDQEVL | 2.53 |
| YCAKLCEPQWFYEETESSDDMEVL | 2.19 |
| YCAKLMEPQWFYEETESSDDVEVL | 2.79 |
| YCAKLCEPQWFYEETESSDDVESL | 2.53 |
| YCAKLCEPQWFYEETEESDDVEVL | 2.85 |
| YCAKLCEPQWFYEETESSDDVTVL | 2.07 |
| YCAKLCEPQWFYEETRSSDDVEVL | 1.77 |
| YCAKLCRPQWFYEETESSDDVEVL | 2.6 |
| YCAKLCEPQWFYLETESSDDVEVL | 2.12 |
| YCAKLCEPQWFYEETESLDDVEVL | 2.23 |
| YCAKLCEPQWFYEETESSDDVERL | 2.44 |
| VCAKLCEPQWFYEETESSDDVEVL | 4.2 |
| YCAKLCEPQWFYEETESSDDVEYL | 2.78 |
| YCAKLCEPQTFYEETESSDDVEVL | 4.34 |
| YCAKLCEPQWFYEESESSDDVEVL | 2.54 |
| YCAKLCETQWFYEETESSDDVEVL | 2.55 |
| YCAKLCEPQWFYEETESSDDVSVL | 2.31 |
| YCGKLCEPQWFYEETESSDDVEVL | 2.01 |

Variants of: B2
Assay: as above
Conditions: c terminus: a fixed tail appended

| Variant | protein stability index |
| --- | --- |
| AGEDGIFRHDRLRFRDFVDALEDS | 4.02 |
| CGEDGIFRHDRLRFRDFVDALEDS | 2.39 |
| DGEDGIFRHDRLRFRDFVDALEDS | 4.29 |
| EGEDGIFRHDRLRFRDFVDALEDS | 4.29 |
| GGEDGIFRHDRLRFRDFVDALEDS | 3.59 |
| HGEDGIFRHDRLRFRDFVDALEDS | 3.76 |
| IGEDGIFRHDRLRFRDFVDALEDS | 3.6 |
| KGEDGIFRHDRLRFRDFVDALEDS | 2.64 |
| LGEDGIFRHDRLRFRDFVDALEDS | 3.14 |
| MGEDGIFRHDRLRFRDFVDALEDS | 3.24 |
| NGEDGIFRHDRLRFRDFVDALEDS | 3.81 |
| PGEDGIFRHDRLRFRDFVDALEDS | 4.16 |
| QGEDGIFRHDRLRFRDFVDALEDS | 4.12 |
| RGEDGIFRHDRLRFRDFVDALEDS | 3.78 |
| SGEDGIFRHDRLRFRDFVDALEDS | 3.74 |
| TGEDGIFRHDRLRFRDFVDALEDS | 3.08 |
| VGEDGIFRHDRLRFRDFVDALEDS | 3.77 |
| WGEDGIFRHDRLRFRDFVDALEDS | 3.1 |
| YGEDGIFRHDRLRFRDFVDALEDS | 2.72 |
| FAEDGIFRHDRLRFRDFVDALEDS | 1.63 |
| FCEDGIFRHDRLRFRDFVDALEDS | 2.83 |
| FDEDGIFRHDRLRFRDFVDALEDS | 3.36 |
| FEEDGIFRHDRLRFRDFVDALEDS | 3.73 |

| Variant | protein stability index |
| --- | --- |
| FFEDGIFRHDRLRFRDFVDALEDS | 2.75 |
| FHEDGIFRHDRLRFRDFVDALEDS | 2.09 |
| FIEDGIFRHDRLRFRDFVDALEDS | 1.97 |
| FKEDGIFRHDRLRFRDFVDALEDS | 2.81 |
| FLEDGIFRHDRLRFRDFVDALEDS | 2.96 |
| FMEDGIFRHDRLRFRDFVDALEDS | 2.91 |
| FNEDGIFRHDRLRFRDFVDALEDS | 3.09 |
| FPEDGIFRHDRLRFRDFVDALEDS | 2.61 |
| FQEDGIFRHDRLRFRDFVDALEDS | 2.66 |
| FREDGIFRHDRLRFRDFVDALEDS | 2.69 |
| FSEDGIFRHDRLRFRDFVDALEDS | 2.48 |
| FTEDGIFRHDRLRFRDFVDALEDS | 2.35 |
| FVEDGIFRHDRLRFRDFVDALEDS | 2.26 |
| FWEDGIFRHDRLRFRDFVDALEDS | 2.95 |
| FYEDGIFRHDRLRFRDFVDALEDS | 3.09 |
| FGADGIFRHDRLRFRDFVDALEDS | 2.75 |
| FGCDGIFRHDRLRFRDFVDALEDS | 2.17 |
| FGDDGIFRHDRLRFRDFVDALEDS | 3.01 |
| FGFDGIFRHDRLRFRDFVDALEDS | 2.18 |
| FGGDGIFRHDRLRFRDFVDALEDS | 2.11 |
| FGHDGIFRHDRLRFRDFVDALEDS | 2.89 |
| FGIDGIFRHDRLRFRDFVDALEDS | 2.91 |
| FGKDGIFRHDRLRFRDFVDALEDS | 2.52 |

| Variant | protein stability index |
| --- | --- |
| FGLDGIFRHDRLRFRDFVDALEDS | 2.44 |
| FGMDGIFRHDRLRFRDFVDALEDS | 2.45 |
| FGNDGIFRHDRLRFRDFVDALEDS | 1.99 |
| FGPDGIFRHDRLRFRDFVDALEDS | 2.28 |
| FGQDGIFRHDRLRFRDFVDALEDS | 2.91 |
| FGRDGIFRHDRLRFRDFVDALEDS | 3.02 |
| FGSDGIFRHDRLRFRDFVDALEDS | 2.02 |
| FGTDGIFRHDRLRFRDFVDALEDS | 2.28 |
| FGVDGIFRHDRLRFRDFVDALEDS | 2.05 |
| FGWDGIFRHDRLRFRDFVDALEDS | 2.18 |
| FGYDGIFRHDRLRFRDFVDALEDS | 3.04 |
| FGEAGIFRHDRLRFRDFVDALEDS | 1.62 |
| FGECGIFRHDRLRFRDFVDALEDS | 2.52 |
| FGEEGIFRHDRLRFRDFVDALEDS | 3.08 |
| FGEFGIFRHDRLRFRDFVDALEDS | 1.74 |
| FGEGGIFRHDRLRFRDFVDALEDS | 1.17 |
| FGEHGIFRHDRLRFRDFVDALEDS | 1.89 |
| FGEIGIFRHDRLRFRDFVDALEDS | 1.73 |
| FGEKGIFRHDRLRFRDFVDALEDS | 1.82 |
| FGELGIFRHDRLRFRDFVDALEDS | 1.99 |
| FGEMGIFRHDRLRFRDFVDALEDS | 1.79 |
| FGENGIFRHDRLRFRDFVDALEDS | 1.98 |
| FGEPGIFRHDRLRFRDFVDALEDS | 1.94 |

| Variant | protein stability index |
| --- | --- |
| FGEQGIFRHDRLRFRDFVDALEDS | 1.83 |
| FGERGIFRHDRLRFRDFVDALEDS | 2.74 |
| FGESGIFRHDRLRFRDFVDALEDS | 1.77 |
| FGETGIFRHDRLRFRDFVDALEDS | 2.24 |
| FGEVGIFRHDRLRFRDFVDALEDS | 2.76 |
| FGEWGIFRHDRLRFRDFVDALEDS | 1.72 |
| FGEYGIFRHDRLRFRDFVDALEDS | 1.73 |
| FGEDAIFRHDRLRFRDFVDALEDS | 3.02 |
| FGEDCIFRHDRLRFRDFVDALEDS | 2.67 |
| FGEDDIFRHDRLRFRDFVDALEDS | 3.5 |
| FGEDEIFRHDRLRFRDFVDALEDS | 3.68 |
| FGEDFIFRHDRLRFRDFVDALEDS | 1.66 |
| FGEDHIFRHDRLRFRDFVDALEDS | 3.17 |
| FGEDIIFRHDRLRFRDFVDALEDS | 2.86 |
| FGEDKIFRHDRLRFRDFVDALEDS | 2.12 |
| FGEDLIFRHDRLRFRDFVDALEDS | 2.54 |
| FGEDMIFRHDRLRFRDFVDALEDS | 3.23 |
| FGEDNIFRHDRLRFRDFVDALEDS | 2.34 |
| FGEDPIFRHDRLRFRDFVDALEDS | 3.37 |
| FGEDQIFRHDRLRFRDFVDALEDS | 3.23 |
| FGEDRIFRHDRLRFRDFVDALEDS | 3.02 |
| FGEDSIFRHDRLRFRDFVDALEDS | 1.95 |
| FGEDTIFRHDRLRFRDFVDALEDS | 2.88 |

| Variant | protein stability index |
| --- | --- |
| FGEDVIFRHDRLRFRDFVDALEDS | 3.19 |
| FGEDWIFRHDRLRFRDFVDALEDS | 1.4 |
| FGEDYIFRHDRLRFRDFVDALEDS | 2.59 |
| FGEDGAFRHDRLRFRDFVDALEDS | 2.23 |
| FGEDGCFRHDRLRFRDFVDALEDS | 2.33 |
| FGEDGDFRHDRLRFRDFVDALEDS | 4.38 |
| FGEDGEFRHDRLRFRDFVDALEDS | 4.52 |
| FGEDGFFRHDRLRFRDFVDALEDS | 1.33 |
| FGEDGGFRHDRLRFRDFVDALEDS | 3.65 |
| FGEDGHFRHDRLRFRDFVDALEDS | 4 |
| FGEDGKFRHDRLRFRDFVDALEDS | 2.7 |
| FGEDGLFRHDRLRFRDFVDALEDS | 2.3 |
| FGEDGMFRHDRLRFRDFVDALEDS | 1.97 |
| FGEDGNFRHDRLRFRDFVDALEDS | 3.46 |
| FGEDGPFRHDRLRFRDFVDALEDS | 3.18 |
| FGEDGQFRHDRLRFRDFVDALEDS | 3.86 |
| FGEDGRFRHDRLRFRDFVDALEDS | 3.72 |
| FGEDGSFRHDRLRFRDFVDALEDS | 2.74 |
| FGEDGTFRHDRLRFRDFVDALEDS | 2.95 |
| FGEDGVFRHDRLRFRDFVDALEDS | 2.76 |
| FGEDGWFRHDRLRFRDFVDALEDS | 1.96 |
| FGEDGYFRHDRLRFRDFVDALEDS | 2.24 |
| FGEDGIARHDRLRFRDFVDALEDS | 3.42 |

| Variant | protein stability index |
| --- | --- |
| FGEDGICRHDRLRFRDFVDALEDS | 2.95 |
| FGEDGIDRHDRLRFRDFVDALEDS | 4.33 |
| FGEDGIERHDRLRFRDFVDALEDS | 4.84 |
| FGEDGIGRHDRLRFRDFVDALEDS | 3.7 |
| FGEDGIHRHDRLRFRDFVDALEDS | 3.91 |
| FGEDGIIRHDRLRFRDFVDALEDS | 3.51 |
| FGEDGIKRHDRLRFRDFVDALEDS | 3.38 |
| FGEDGILRHDRLRFRDFVDALEDS | 3.13 |
| FGEDGIMRHDRLRFRDFVDALEDS | 4.07 |
| FGEDGINRHDRLRFRDFVDALEDS | 4.02 |
| FGEDGIPRHDRLRFRDFVDALEDS | 3.88 |
| FGEDGIQRHDRLRFRDFVDALEDS | 3.36 |
| FGEDGIRRHDRLRFRDFVDALEDS | 2.84 |
| FGEDGISRHDRLRFRDFVDALEDS | 2.97 |
| FGEDGITRHDRLRFRDFVDALEDS | 2.71 |
| FGEDGIVRHDRLRFRDFVDALEDS | 3.72 |
| FGEDGIWRHDRLRFRDFVDALEDS | 1.95 |
| FGEDGIYRHDRLRFRDFVDALEDS | 2.98 |
